Measured values taken from the nanobody polyreactivity screen of Harvey et al. (2022).

Experiment: yeast display, Sf9 membrane polyspecificity reagent, FACS + sequencing; frameworks hold sequencing errors
Summary of the method: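 After 36–48 hours of galactose induction, yeast (Saccharomyces cerevisiae BJ5465) displaying a synthetic nanobody library were stained at 4 °C for 1 hour with 10% biotinylated, detergent-solubilized Sf9 membrane reagent. Streptavidin microbeads enriched the stained cells before FACS sorting into low and high (top ~1%) gates on anti-HA and streptavidin fluorescence. Each clone's polyreactivity label reflects its gate of origin.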

Sequence	polyreactivity (PSR sort gate)
QVQLVESGGGLVQAGGSLRLSCAASGRILGNNVMGWYRQAPGKERELVDAITSSGGRTYYADSVKGRFTISRDNAKNTVYLQMNSLKPEDTAVYYCAAERRYYGKFNYWGQGTQVTVSS	high polyreactivity
QVQLVESGGGLVQAGGSLRLSCAASGRILGQYAMGWYRQAPGKERELVAAISFRGGRTYYADSVKGRFTISRDNAKNTVYLQMNSLKPEDTAVYYCATDGWRSPYYRNYRYFYTEYYYWGQGTQVTVSS	high polyreactivity
QVQLVESGGGLVQAGGSLRLSCAASGRILGQYVMGWYRQAPGKERELVASIRSGGVSTYYADSVKGRFTISRDNAKNTVYLQMNSLKPEDTAVYYCATGSPGPRRYKFDYWGQGTQVTVSS	low polyreactivity
QVQLVESGGGLVQAGGSLRLSCAASGRILGRYAMGWYRQAPGKERELVAAISGSGTSTYYADSVKGRFTISRDNAKNTVYLQMNSLKPEDTAVYYCAAKWITRRGGDFDYWGQGTQVTVSS	high polyreactivity
QVQLVESGGGLVQAGGSLRLSCAASGRILGVNAMGGYRQAPGKERELVAAINFSGGGTYYADSVKGRFTISRDNAKNTVYLQMNSLKPEDTAVYYCAAGYVTTWFRYDYWGWGQGTQVTVSS	low polyreactivity
QVQLVESGGGLVQAGGSLRLSCAASGRILGYNARGWYRQAPGKEREFVATISKRTGSTRYADSVKGRFTISRDNAKNTVYLQMNSLKPEDTAVYYCAAYYGRFYGKYDYWGQGTQVTVSS	high polyreactivity
QVQLVESGGGLVQAGGSLRLSCAASGRILHHYAMGWYIQAHGKERELVAAIRWGGGSTYYADSVKGRFTISRDNAKNTVYLQMNSLKPEDTAVYYCAAEVVAGYDYSQYYYWGQCTQVTVSS	low polyreactivity
QVQLVESGGGLVQAGGSLRLSCAASGRILILNAMGWYRQAPGKERELVAAITNGGSTNYADSVKGRFTISRDNAKNSVYLQMNSLKPEDTAVYYCAARLYSYDYYTVLKLFDYWGQGTQVTVSS	low polyreactivity
QVQLVESGGGLVQAGGSLRLSCAASGRILIPYAMGWYRQAPGKEREFVAGITGSGGRTYYADSVKGRFTISRDNAKNTVYLQMNSLKPEDTAVYYCAADYYYSPTMYYWGQGTQVTVSS	low polyreactivity
QVQLVESGGGLVQAGGSLRLSCAASGRILIRKAMGRSRQAPGKERELVAAINRGGGSTYYADSVKGRFTISRDNAKNTVYLQMNSLKPEDTAVYYCAADRKAGYSRVDGDYWGQGTQVTVSS	low polyreactivity
QVQLVESGGGLVQAGGSLRLSCAASGRILKRYAMGWYRQAPGKERELVAAINWSGGSTYYADSVKGRFTISRDNAKNTVYLQMTSLKPEDTAVYYCAADSWPFGYYYWGQGTQVTVSS	high polyreactivity
QVQLVESGGGLVQAGGSLRLSCAASGRILKVYAMGGYRQAPGQERELVAAISVNGGRTYYADSVKGRFTISRDNAKNTVYLQMNSLKPEDTAVYYCAIRLYKPGNVFYSVDQSDYWGQGTQVTVSS	low polyreactivity
QVQLVESGGGLVQAGGSLRLSCAASGRILLRNVMGLYRPAPGKERELVAVITRTGITYYADSVKGRFTISRDNAKNTVYLQMISLNPEDTAVYYCAAGLPTYEHDYWGQGTQVTVSS	low polyreactivity
QVQLVESGGGLVQAGGSLRLSCAASGRILLSYAMGWYRQAPGKERELVAAISRSGVSTYYADSVKGRFTISRDNAKNTVYLQMNSLKPEDTAVYYCAAVRSSPGKSWDYNYWGQGTQVTVSS	high polyreactivity
QVQLVESGGGLVQAGGSLRLSCAASGRILPFNAMGWYRQAPGKERELVAAIRWRGSSTYYADSVKGRFTISRDIAKNTVYLQMNSLKPEDTAVYYCAAPSSVRGKVISADYGYWGQGTQVTVSS	high polyreactivity
QVQLVESGGGLVQAGGSLRLSCAASGRILPFNAMGWYRQAPGKERELVATITRRGGSTFYADSVKGRFTMSRDNAKNTVYLQMNSLKPEDTAVYYCAKTYWYVGSSRTYNYWGQGTQVTVSS	high polyreactivity
QVQLVESGGGLVQAGGSLRLSCAASGRILPSNAMGWYRPAPGKERELVAGITSGGSTDYADSVKGRFTISRDNAKNTVYLQMNSLKPEDTAVYYCNKPFPYYPDGPNGYDYWGQGTQVTVSS	low polyreactivity
QVQLVESGGGLVQAGGSLRLSCAASGRILQFYAMGWYRQAPGKERELVATIRVGGGSTYYADSVKGRFTISRDNAKNTVYLQMYSLKPEDTAVYYCAVRQLYSYPGDRRGYYWGQGTQVTVSS	low polyreactivity
QVQLVESGGGLVQAGGSLRLSCAASGRILQGYAMGWYRQAPGKERELVASIRTGGTTNYADSVKGRFTISRDNAKNTVYLQMNSLKPEDTAVYYCNLGYYSYYGRYYYWGQGTQVTVSS	high polyreactivity
QVQLVESGGGLVQAGGSLRLSCAASGRILQPNAMGWYRQAPGKERELVAGISRSGGGTYYADSVKWRFTISRDNAKNTVYLQMNTLKPEDTAVYYCAAYRYGYGYGYWGQGTQLTVSS	high polyreactivity
QVQLVESGGGLVQAGGSLRLSCAASGRILRSYAMGWYRPAPGKERELVAAIRWRGGSTYYADSVKGRFTISRDNAKNTVYLQMNSLKPEDTAVYYCAARSYYRQSAGDYWGQGTQVTVSS	high polyreactivity
QVQLVESGGGLVQAGGSLRLSCAASGRILRTYAMGWYRPAPGKERELVAAISRSGGSTYYADSVKGRFTISRDNAKNTVYLQMNSLKPEDTAVYYCNKAYGGRGYKYEYWGQGTQVTVSS	high polyreactivity

Sequence	polyreactivity (PSR sort gate)
QVQLVESGGGLVQAGGSLRLSCAASGRILSGNAMGWYRQAPGKERELVAAITNAGITKYADSVKGRFTISRDNAKNTVYLQMNSLKPEDTAVYYCATDRYAYKLYDYWGQGTQVTVSS	low polyreactivity
QVQLVESGGGLVQAGGSLRLSCAASGRILSKNAMGWYRQAPGKERELVAAIRGSTGITYYADSVKGRFTISRDNAKNTVYLQMNSLKPEDTAVYYCAAVVQGGFYWGQGTQVTVSS	high polyreactivity
QVQLVESGGGLVQAGGSLRLSCAASGRILSYYAMGWYRQAPGKERELVAVIRRGASTYADSVKGRFTISRDNAKNTVYLQMNSLKPEDTAVYYCNADRVVGLSATKYGYWGQGTQVTVSS	low polyreactivity
QVQLVESGGGLVQAGGSLRLSCAASGRILTFNAMGGYRQAPVKERELVASISNGGSTIYADSVKGRFSISRDNAKNTVYLQMNSLKPEDTAVYYCAALNASQGTVTFYIFDYWGQGTQVTVSS	low polyreactivity
QVQLVESGGGLVQAGGSLRLSCAASGRILTGYAMGWYRQAPGKARELVAAISNDTDSTHYADSVKGRFTISRDNAKNTVYLQMNSLKPEDTAVYYCATDAPLQKRWRRFDYWGQGTQVTVSS	low polyreactivity
QVQLVESGGGLVQAGGSLRLSCAASGRILTGYAMGWYRQAPGKERELVAAISNDTDSTHYADSVKGRFTISRDNAKNTVYLQMNSLKPEDTAVYYCATDAPLQKRWRRFDYWGQGTQVTVSS	low polyreactivity
QVQLVESGGGLVQAGGSLRLSCAASGRILTRNALGWYRQAPGKERELVAAISTSGGRTYYADSVKGRFTISRDNAKNTVYLEMNSLKPEDTAVYYCAAYSASYGGYDYWGQGTQVTVSS	high polyreactivity
QVQLVESGGGLVQAGGSLRLSCAASGRILVDYAMGWYRQAPGKERELVAAITSTGGTTYYADSVKGRFTISRDNAKNTVYLQMNSLKPEDTAVYYCAAKRQDSWGGTYGYWGQGTQVTVSS	low polyreactivity
QVQLVESGGGLVQAGGSLRLSCAASGRILVYYAMGWYRQATGKERELVAAITASGASTYYADSVKGRFTISRDNAKKTVYLQMNSLKPEDTAVYYCKVLYPRKYWQVREYYWGQGTQVTVSS	high polyreactivity
QVQLVESGGGLVQAGGSLRLSCAASGRILWFYAMGWYRQAPGKERELVAAITDSGGSTYYADSVKGRFTISRDNAKNTVYLQMNSLKPEDTAVYYCAADTYYEFQYYVILEYNYWGQGTQVTVSS	low polyreactivity
QVQLVESGGGLVQAGGSLRLSCAASGRILYLNDMGWYRQAPGKERELGAAITRRAGSTSYADSVKGRFTISRDNAKNTFYLQMNSLKPEDTAVYYCAKATSRRGFYYWGQGTQVTVSS	high polyreactivity
QVQLVESGGGLVQAGGSLRLSCAASGRILYNYAMGWYRQAPGKECELVAAISSGGSTNYADSVKGRFTISRDNAKNTVYFQMNSLKPEDTAVYYCAAYRGHSWRGLYRWSDYDFWGQGTQVTVSS	low polyreactivity
QVQLVESGGGLVQAGGSLRLSCAASGRILYPYAMGGYRQAPGKERELVAAITFIGGSTYYADSVKGRFTISRDNAKNTVYLQMNSLKPEDTAVYYCNAKPHRPSLLRWRIGNYWGQGTQVTVSS	high polyreactivity
QVQLVESGGGLVQAGGSLRLSCAASGRILYRYAMGWYRQAPGKERELVAAISRSGGDTYYADSVKGRFTISRDNAKNTVYLQMNSLKPEDTAVYYCAASFEGSGYRYDYWGQGTQVTVSS	low polyreactivity
QVQLVESGGGLVQAGGSLRLSCAASGRILYRYAMGWYRQAPGKERELVAAITWRGGTTYYADSVKGRFTISRDNAKNTVYLQMISLKPEDTAVYYCNSDWWRTLESDYWGQGTQVTVSS	low polyreactivity
QVQLVESGGGLVQAGGSLRLSCAASGRILYRYDMGWYRQAPGKERELVAAISRRGGSTTYADSVKGRFTISRDNAKNTVYLQMNSLKPEDTAVYYCATDYKYAAPTVIESDYWGQGTEVTVSS	high polyreactivity
QVQLVESGGGLVQAGGSLRLSCAASGRILYSYAMGWYRQEPGKERELVAAISSTGSTYYADSVKGRFTISRDNAKNTVYLQMISLKPEDTAVYYCAATFYPYQVHHYYYWGQGTQVTVSS	low polyreactivity
QVQLVESGGGLVQAGGSLRLSCAASGRILYSYTMGWYRQAPGKEREFVAAITRSGGGTYYADSVKGRFTISRDNAKNTVYLQMNSLKPEDTAVYYCAYYTYYLAYGYWGQGTQVTVSS	high polyreactivity
QVQLVESGGGLVQAGGSLRLSCAASGRILYVYVMGWYRQAPGKERELVAAITTSGDSTYYADSVKGRFTISRDNAKNTVYLQMNRLKPEDTAVYYCNAEEHDYVAHMDYWGQGTQVTVSS	low polyreactivity
QVQLVESGGGLVQAGGSLRLSCAASGRILYYSVMGWYRPAPGKERELVAAISSGGDTNYADSVKGRFTISRDNAKNSVYLQMNSLKPEDTAVYYCARGVDGILWTSEYDYWGQGTQVTVSS	low polyreactivity
QVQLVESGGGLVQAGGSLRLSCAASGRILYYYAMGWYRQAPGKERELVATITRTTGSTYYADSVKGRFTISRDNAKNTVYLQMNSLKPEDTAVYYCAARWGRWIRDNYWGQGTQVSVSS	high polyreactivity
